For this test, the target named is T1, 6xHis-SUMO-Gin4 (S. cerevisiae, UniProt Q12263 1-1142).
T1 sequence (looked up): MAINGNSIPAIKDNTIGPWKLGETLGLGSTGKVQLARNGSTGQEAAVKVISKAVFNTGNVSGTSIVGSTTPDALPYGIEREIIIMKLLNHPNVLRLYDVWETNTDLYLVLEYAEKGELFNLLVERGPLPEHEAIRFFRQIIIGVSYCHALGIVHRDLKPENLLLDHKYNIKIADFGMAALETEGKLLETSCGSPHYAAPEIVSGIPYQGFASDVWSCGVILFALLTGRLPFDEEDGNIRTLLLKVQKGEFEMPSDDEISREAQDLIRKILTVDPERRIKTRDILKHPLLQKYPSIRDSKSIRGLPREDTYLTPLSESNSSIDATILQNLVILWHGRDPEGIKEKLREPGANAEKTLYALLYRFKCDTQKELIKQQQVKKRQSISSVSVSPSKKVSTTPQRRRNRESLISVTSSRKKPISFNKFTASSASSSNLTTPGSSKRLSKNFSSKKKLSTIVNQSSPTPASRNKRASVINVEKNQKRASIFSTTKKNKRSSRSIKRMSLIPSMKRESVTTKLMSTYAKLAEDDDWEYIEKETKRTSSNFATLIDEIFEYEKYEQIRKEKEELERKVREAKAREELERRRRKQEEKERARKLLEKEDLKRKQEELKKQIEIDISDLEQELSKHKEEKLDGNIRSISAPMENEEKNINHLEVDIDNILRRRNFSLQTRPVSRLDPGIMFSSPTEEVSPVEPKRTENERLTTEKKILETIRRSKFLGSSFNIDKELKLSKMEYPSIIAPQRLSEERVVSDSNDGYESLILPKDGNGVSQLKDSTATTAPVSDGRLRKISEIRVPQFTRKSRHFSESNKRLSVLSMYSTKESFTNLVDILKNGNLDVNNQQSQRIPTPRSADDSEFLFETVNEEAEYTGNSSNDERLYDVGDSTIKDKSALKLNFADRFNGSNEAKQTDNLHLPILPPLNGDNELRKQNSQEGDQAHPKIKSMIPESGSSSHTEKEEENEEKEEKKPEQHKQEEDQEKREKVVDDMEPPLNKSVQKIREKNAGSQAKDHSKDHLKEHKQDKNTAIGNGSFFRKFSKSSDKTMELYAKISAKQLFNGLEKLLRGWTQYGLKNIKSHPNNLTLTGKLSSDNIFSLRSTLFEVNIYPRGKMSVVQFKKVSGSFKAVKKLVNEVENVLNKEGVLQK
Put plainly: pull-down.

B1: GST-Elm1^WT (enzyme, S. cerevisiae, UniProt P32801 1-640, looked up)
chain: MSPRQLIPTLIPEWAPLSQQSCIREDELDSPPITPTSQTSSFGSSFSQQKPTYSTIIGENIHTILDEIRPYVKKITVSDQDKKTINQYTLGVSAGSGQFGYVRKAYSSTLGKVVAVKIIPKKPWNAQQYSVNQVMRQIQLWKSKGKITTNMSGNEAMRLMNIEKCRWEIFAASRLRNNVHIVRLIECLDSPFSESIWIVTNWCSLGELQWKRDDDEDILPQWKKIVISNCSVSTFAKKILEDMTKGLEYLHSQGCIHRDIKPSNILLDEEEKVAKLSDFGSCIFTPQSLPFSDANFEDCFQRELNKIVGTPAFIAPELCHLGNSKRDFVTDGFKLDIWSLGVTLYCLLYNELPFFGENEFETYHKIIEVSLSSKINGNTLNDLVIKRLLEKDVTLRISIQDLVKVLSRDQPIDSRNHSQISSSSVNPVRNEGPVRRFFGRLLTKKGKKKTSGKGKDKVLVSATSKVTPSIHIDEEPDKECFSTTVLRSSPDSSDYCSSLGEEAIQVTDFLDTFCRSNESLPNLTVNNDKQNSDMKTDRSESSSHSSLKIPTPIKAMIRLKSSPKENGNRTHINCSQDKPSSPLMDRTVGKRTVNNSGARKLAHSSNILNFKAYINSEDSDIRETVEDVKTYLNFADNGQI
As for B1, the binding result is “binds”.

The values above are taken from PMC10913813 (The Journal of Cell Biology, 2024).
